The values below come from article doi:10.1101/2021.09.16.460631.

Common to all, as to assay: EMSA
Data set [1] relates to Protamine 1 (WT P1) (Mus musculus (C57BL/6N background)).
For data set [2], the system named is Protamine 1 K49A (Mus musculus (C57BL/6N, P1 K49A/K49A knock-in)).
In data set [3] the test system is Protamine 2 precursor (pro P2) (Mus musculus (C57BL/6N, P1 K49A/K49A knock-in)).
The subject of data set [4] is Protamine 2, mature (WT P2) (Mus musculus (C57BL/6N background)).

By Kd is commonly meant the equilibrium constant for the complex coming apart. Read a low Kd as a tighter complex. For ~300 bp linear DNA (280 bp PCR product), the Kd in data set [1] is 680 nM; in data set [2], 950 nM; in data set [3], 840 nM; in data set [4], 670 nM.
